Experimental data from patent publication US20130189787A1 (OPX BIOTECHNOLOGIES ,INC., priority 2008, published 2013).

Legend:
E. coli strain BW25113 = conditions: 20 g/L 3-HP, putrescine 0.1 g/L
Procedure: The control E. coli strain BW25113 and 22 of its derivatives, each derivative having a deletion of a respective one of 22 aldehyde dehydrogenases or related genes (predicted aldehyde dehydrogenases via homology, www.ecocyc.org) were cultured as described in methods in the Common Methods Section. […] These strains each contain a kanamycin marker in place of the deleted gene.
In addition, an Eppendorf external column heater is used and the data are collected using an SRI (Torrance, Calif.) analog-to-digital converter linked to a standard desk top computer. Data are analyzed using the SRI Peak Simple software. A Coregel 64H ion exclusion column (Transgenomic, Inc., San Jose, Calif.) is employed. The column resin is a sulfonated polystyrene divinyl benzene with a particle size of 10 μm and column dimensions are 300×7.8 mm The mobile phase consisted of sulfuric acid (Fisher Scientific, Pittsburgh, Pa. USA) diluted with deionized (18 MΩcm) water to a concentration of 0.02 N and vacuum filtered through a 0.2 μm nylon filter. The flow rate of the mobile phase is 0.6 mL/min. The UV detector is operated at a wavelength of 210 nm and the column is heated to 60° C.
The next day, 250 uL of the overnight cultures were inoculated into 25 mL of M9+kanamycin. […] All the intracellular and extracellular metabolites were analyzed by HPLC as described in the Common Methods Section, Subsection III.

E. coli = conditions: known to be toxic; cited from earlier work
[1] = system: gram negative and gram positive bacteria; conditions: wide range of gram negative and gram positive bacteria; concentrations as low as; cited from earlier work
[2] = Enzyme activity assay of purified aldB with its natural substrate; type: biochemical, E. coli; conditions: 1 mM acetate, FIG. 9B
Procedure: (§1) A spectrophotometric assay was used to evaluate enzyme activity. […] Replicates of reactions were carried out to compare reactions in the presence or absence or 3-HP, and with and without enzyme. Enzymatic activities were confirmed by comparing the change in the 340 nm absorption values after 1 hour incubations to reactions performed in buffer containing 1 mM cofactor as a baseline. […] Furthermore, activity of the purified aldB enzyme was confirmed with its natural substrate (1 mM […]) as in FIG. 9B.
(§2) Reactions were carried out using one of two reaction buffers. AldA, AldB, LacZ, and Usg reactions were performed in a buffer consisting of 100 mM potassium phosphate buffer pH 7.4 with 50 mM sodium chloride. Likewise, puuC reactions were performed in a buffer consisting of 200 mM sodium bicarbonate pH 9.2 with 10 mM dithiothreitol and 30 micromolar ferrous sulphate. Where stated, all cofactors were used at 1 mM in the final reaction buffer. […] After one hour incubations at room temperature, the samples were diluted 1 to 20 in water and measured with a Beckmann DU530 spectrometer set at 340 nm.

[3] = Enzyme activity assays for dehydrogenase enzymes with 3-HP as a substrate (340 nm spectrophotometric); type: biochemical, E. coli; conditions: 1 mM 3-HP, 1 mM cofactor, 1 hour at room temperature, change in absorption at 340 nm; clarified lysates or purified enzymes
Procedure: Samples of these enzymes were isolated either as clarified lysates or as purified enzymes as described in the method reported above. As these dehydrogenases use NAD+, NADH, NADP+, NADPH or all of these molecules as cofactors for their reactions depending on reaction direction, all enzymes where tested with their known cofactors. For enzymes where the specific cofactors have not been determined or maybe unclear, all possible cofactors were evaluated.
as §1, §2

NCCCCN [putrescine]
level of aldehyde in response to 3-HP (E. coli strain BW25113; 20 hours, FIG. 7): greater level | level of aldehyde in response to 3-HP in a strain lacking the puuC gene (E. coli strain BW25113; puuC deletion strain, FIG. 8): elevated levels

O=CCCO [3-HPA, 3-hydroxypropionaldehyde]
toxicity to E. coli (E. coli): toxic | concentration toxic to bacteria [1]: ≥ 15 mM

B1: aldB: E. coli acetaldehyde dehydrogenase, his-tagged, over-expressed (SEQ ID NO 024) (protein, listed as Escherichia coli)
chain: MTNNPPSAQIKPGEYGFPLKLKARYDNFIGGEWVAPADGEYYQNLTPVTGQLLCEVASSGKRDIDLALDAAHKVKDKWAHTSVQDRAAILFKIADRMEQNLELLATAETWDNGKPIRETSAADVPLAIDHFRYFASCIRAQEGGISEVDSETVAYHFHEPLGVVGQIIPWNFPLLMASWKMAPALAAGNCVVLKPARLTPLSVLLLMEIVGDLLPPGVVNVVNGAGGVIGEYLATSKRIAKVAFTGSTEVGQQIMQYATQNIIPVTLELGGKSPNIFFADVMDEEDAFFDKALEGFALFAFNQGEVCTCPSRALVQESIYERFMERAIRRVESIRSGNPLDSVTQMGAQVSHGQLETILNYIDIGKKEGADVLTGGRRKLLEGELKDGYYLEPTILFGQNNMRVFQEEIFGPVLAVTTFKTMEEALELANDTQYGLGAGVWSRNGNLAYKMGRGIQAGRVWTNCYHAYPAHAAFGGYKQSGIGRETHKMMLEHYQQTKCLLVSYSDKPLGLF
modifications: His tag
enzymatic activity with natural substrate [2]: confirmed | enzymatic activity using 3-HP as a substrate [3]: showed activity

B2: usg: E. coli aldehyde dehydrogenase not listed in Table 1 (SEQ ID NO: 121) (protein, listed as Escherichia coli)
chain: MSEGWNIAVLGATGAVGEALLETLAERQFPVGEIYALARNESAGEQLRFGGKTITVQDAAEFDWTQAQLAFFVAGKEATAAWVEEATNSGCLVIDSSGLFALEPDVPLVVPEVNPFVLTDYRNRNVIAVPDSLTSQLLAALKPLIDQGGLSRISVTSLISASAQGKKAVDALAGQSAKLLNGIPIDEEDFFGRQLAFNMLPLLPDSEGSVREERRIVDEVRKILQDEGLMISASVVQAPVFYGHAQMVNFEALRPLAAEEARDAFVQGEDIVLSEENEFPTQVGDASGTPHLSVGCVRNDYGMPEQVQFWSVADNVRFGGALMAVKIAEKLVQEYLY
enzymatic activity using 3-HP as a substrate [3]: showed activity

B3: puuC: E. coli γ-glutamyl-γ-aminobutyraldehyde dehydrogenase, over-expressed (SEQ ID NO 038) (protein, listed as Escherichia coli)
chain: MNFHHLAYWQDKALSLAIENRLFINGEYTAAAENETFETVDPVTQAPLAKIARGKSVDIDRAMSAARGVFERGDWSLSSPAKRKAVLNKLADLMEAHAEELALLETLDTGKPIRHSLRDDIPGAARAIRWYAEAIDKVYGEVATTSSHELAMIVREPVGVIAAIVPWNFPLLLTCWKLGPALAAGNSVILKPSEKSPLSAIRLAGLAKEAGLPDGVLNVVTGFGHEAGQALSRHNDIDAIAFTGSTRTGKQLLKDAGDSNMKRVWLEAGGKSANIVFADCPDLQQAASATAAGIFYNQGQVCIAGTRLLLEESIADEFLALLKQQAQNWQPGHPLDPATTMGTLIDCAHADSVHSFIREGESKGQLLLDGRNAGLAAAIGPTIFVDVDPNASLSREEIFGPVLVVTRFTSEEQALQLANDSQYGLGAAVWTRDLSRAHRMSRRLKAGSVFVNNYNDGDMTVPFGGYKQSGNGRDKSLHALEKFTELKTIWISLEA
enzymatic activity using 3-HP as a substrate [3]: showed activity

B4: aldA: E. coli aldehyde dehydrogenase A, his-tagged, over-expressed (SEQ ID NO 023) (protein, listed as Escherichia coli)
chain: MSVPVQHPMYIDGQFVTWRGDAWIDVVNPATEAVISRIPDGQAEDARKAIDAAERAQPEWEALPAIERASWLRKISAGIRERASEISALIVEEGGKIQQLAEVEVAFTADYIDYMAEWARRYEGEIIQSDRPGENILLFKRALGVTTGILPWNFPFFLIARKMAPALLTGNTIVIKPSEFTPNNAIAFAKIVDEIGLPRGVFNLVLGRGETVGQELAGNPKVAMVSMTGSVSAGEKIMATAAKNITKVCLELGGKAPAIVMDDADLELAVKAIVDSRVINSGQVCNCAERVYVQKGIYDQFVNRLGEAMQAVQFGNPAERNDIAMGPLINAAALERVEQKVARAVEEGARVAFGGKAVEGKGYYYPPTLLLDVRQEMSIMHEETFGPVLPVVAFDTLEDAISMANDSDYGLTSSIYTQNLNVAMKAIKGLKFGETYINRENFEAMQGFHAGWRKSGIGGADGKHGLHEYLQTQVVYLQS
modifications: His tag
enzymatic activity using 3-HP as a substrate [3]: showed activity
